The record followed here is PMC13046825, “A gated hydrophobic funnel within BAX binds bioactive lipids to potentiate pro-apoptotic function” (Nature Communications, 2024).

Test [1] addresses T1, BAX (Homo sapiens, UniProt Q07812). Nature of the test: 1H-15N HSQC NMR chemical shift perturbation; MST. It counts as binding. Also noted: 15N-labeled BAX WT.
Test [2] addresses T1, BAX. In words: microscale thermophoresis. Type of test: binding. Also noted: recombinant human BAX WT. Background: Microscale thermophoresis detects binding through changes in fluorescence in a small temperature gradient.
For test [3], the target named is T1, BAX. Nature of the test: microscale thermophoresis; also 1H-15N HSQC NMR, FLAMBE, LUV permeabilization. Also noted: recombinant human BAX, without a tag or exogenous residues (Alexa Fluor 647-labeled for MST). It counts as binding.
For test [4], the target named is T2, BAX^2S (Homo sapiens, UniProt Q07812, C62S/C126S).
T2 construct: recombinant human BAX, cysteine-replacement mutant
Nature of the test: thermal shift, FLAMBE and LUV permeabilization with purified BAX^2S (activation). It counts as biochemical.

Test [5] concerns the target 5-TAMRA labeled BAK-BH3 peptide. Nature of the test: FLAMBE (fluorescence polarisation). The note with it: BAKTAMRA 50 nM, read at 60 min, read off a plot.

T1 sequence (Q07812 whole entry): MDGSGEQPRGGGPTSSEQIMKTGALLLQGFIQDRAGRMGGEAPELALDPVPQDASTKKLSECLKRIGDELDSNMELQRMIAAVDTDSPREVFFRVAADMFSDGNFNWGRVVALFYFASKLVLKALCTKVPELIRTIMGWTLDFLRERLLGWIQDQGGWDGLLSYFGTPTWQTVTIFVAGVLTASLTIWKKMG
T2 sequence (Q07812 whole entry C62S/C126S): as the sequence (Q07812 whole entry) above, with C62S, C126S counted along it

As for `CCCCCC/C=C/C=O` [2t9, 2t-nonenal], in test [1], the “1H-15N HSQC NMR chemical shift perturbation; MST” value is “nonenal and especially pentenal interacted with several accessible regions of BAX”.

For `CCCCCCCC/C=C/C=O` [2t11, 2t-undecenal], the microscale thermophoresis result in test [2] was “When subjected to MST, BAX^WT exhibited altered thermophoresis with each of the alkenals”.

Turning to `CCCCCCCCC/C=C/C=O` [2t12, 2t-dodecenal], the microscale thermophoresis result in test [2] was “When subjected to MST, BAX^WT exhibited altered thermophoresis with each of the alkenals”.

As a reminder, the EC50 is the concentration needed to bring the measured effect to its halfway point. `CCCCCCCCCCCCC/C=C/C=O` [2t16, 2-trans-hexadecenal]: the EC50 in test [3] came out at 0.182 µM. The “thermal shift, FLAMBE and LUV permeabilization with purified BAX^2S (activation)” value in test [4] was “BAX^2S remained sensitive to hexadecenal-mediated changes in melting temperature, pore formation, and synergy with BIM‑BH3 peptide”.

With “recombinant human BAX, wild type (from UniProt Q07812) L59C; C62S; C126S; L162C”, the response was 200 mP in test [5] (BAXα8 225 nM, 2t16 4.5 μM, no BIM-BH3); 260 mP in test [5] (BAXα8 225 nM, BIM-BH3 0.15 μM, 2t16 4.5 μM); 260 mP in test [5] (BAXα8 225 nM, BIM-BH3 0.15 μM, no 2t16); 200 mP in test [5] (BAXα8 225 nM, no BIM-BH3, no 2t16).

For the compound “recombinant human BAX, wild type (from UniProt Q07812) P168G”, the response in test [5] (BAXP168G 65 nM, 2t16 3 μM, no BIM-BH3) turned out to be 240 mP; in test [5] (BAXP168G 65 nM, BIM-BH3 0.15 μM, 2t16 3 μM), 300 mP; in test [5] (BAXP168G 65 nM, BIM-BH3 0.15 μM, no 2t16), 310 mP; in test [5] (BAXP168G 65 nM, no BIM-BH3, no 2t16), 260 mP.
